Results reported in the MegaScale stability set (Tsuboyama et al. 2023).

B1: r16_88_TrROS_Hall (parent)
chain: EVIELKIKFKTPEQREKLKEIAKKLNAEVVEEKDGEVIIRFKTPEQAERALKEAEKLGAEVEL

Variants of: B1
Assay: folding stability dG (cDNA display proteolysis); higher = more stable
Conditions: PBS, room temperature

In order of falling “folding stability dG” value:
1. I3F  4.97 kcal/mol
2. I38W  4.96 kcal/mol
3. E4Q  4.79 kcal/mol
4. L51H  4.79 kcal/mol
5. K19W  4.7 kcal/mol
6. E28C  4.65 kcal/mol
7. I7L  4.64 kcal/mol
8. I3M  4.63 kcal/mol
9. I3L  4.63 kcal/mol
10. T11M  4.62 kcal/mol
11. K52F  4.62 kcal/mol
12. L51R  4.61 kcal/mol
13. L51K  4.61 kcal/mol
14. E16L  4.6 kcal/mol
15. E62C  4.59 kcal/mol
16. E16H  4.59 kcal/mol
17. L51S  4.59 kcal/mol
18. T11C  4.58 kcal/mol
19. K17Y  4.56 kcal/mol
20. P12C  4.54 kcal/mol
21. E4S  4.54 kcal/mol
22. E60V  4.54 kcal/mol
23. P12M  4.53 kcal/mol
24. K17L  4.53 kcal/mol
25. N26M  4.53 kcal/mol
26. K56I  4.52 kcal/mol
27. K52A  4.52 kcal/mol
28. I38M  4.51 kcal/mol
29. E28Q  4.51 kcal/mol
30. K56P  4.5 kcal/mol
31. E62S  4.5 kcal/mol
32. K19L  4.5 kcal/mol
33. E48A  4.5 kcal/mol
34. F41A  4.49 kcal/mol
35. K6H  4.48 kcal/mol
36. E48D  4.47 kcal/mol
37. G35W  4.46 kcal/mol
38. L25I  4.46 kcal/mol
39. T43A  4.45 kcal/mol
40. L51G  4.45 kcal/mol
41. N26S  4.45 kcal/mol
42. K56N  4.44 kcal/mol
43. E28H  4.43 kcal/mol
44. K33R  4.43 kcal/mol
45. L51A  4.43 kcal/mol
46. A50Y  4.43 kcal/mol
47. K52W  4.43 kcal/mol
48. N26G  4.43 kcal/mol
49. K6M  4.43 kcal/mol
50. G35R  4.42 kcal/mol
51. K19M  4.42 kcal/mol
52. K33F  4.42 kcal/mol
53. E53Q  4.42 kcal/mol
54. K17M  4.42 kcal/mol
55. L25Q  4.42 kcal/mol
56. N26R  4.42 kcal/mol
57. T43F  4.41 kcal/mol
58. A50V  4.41 kcal/mol
59. E28T  4.4 kcal/mol
60. E4D  4.4 kcal/mol
61. A50I  4.4 kcal/mol
62. K33M  4.39 kcal/mol
63. V37I  4.39 kcal/mol
64. P12G  4.38 kcal/mol
65. T11R  4.37 kcal/mol
66. E53W  4.37 kcal/mol
67. T43K  4.36 kcal/mol
68. V37W  4.36 kcal/mol
69. I7G  4.36 kcal/mol
70. A50C  4.36 kcal/mol
71. N26W  4.36 kcal/mol
72. A54L  4.35 kcal/mol
73. I39C  4.35 kcal/mol
74. R15F  4.35 kcal/mol
75. N26V  4.35 kcal/mol
76. G58L  4.35 kcal/mol
77. K56H  4.33 kcal/mol
78. L18I  4.33 kcal/mol
79. V37M  4.33 kcal/mol
80. K52C  4.33 kcal/mol
81. L25S  4.33 kcal/mol
82. N26C  4.33 kcal/mol
83. G58M  4.33 kcal/mol
84. L25V  4.32 kcal/mol
85. K19I  4.31 kcal/mol
86. N26D  4.3 kcal/mol
87. L18F  4.29 kcal/mol
88. K10L  4.29 kcal/mol
89. E48L  4.29 kcal/mol
90. E60N  4.29 kcal/mol
91. R15V  4.29 kcal/mol
92. L18M  4.28 kcal/mol
93. V61L  4.28 kcal/mol
94. A50L  4.28 kcal/mol
95. K17V  4.28 kcal/mol
96. K17P  4.28 kcal/mol
97. K33I  4.27 kcal/mol
98. T43V  4.27 kcal/mol
99. G58H  4.27 kcal/mol
100. I38S  4.26 kcal/mol
101. T11G  4.26 kcal/mol
102. G35Q  4.25 kcal/mol
103. K19S  4.25 kcal/mol
104. G58Y  4.25 kcal/mol
105. I38N  4.24 kcal/mol
106. G35K  4.24 kcal/mol
107. E60D  4.24 kcal/mol
108. F41Y  4.23 kcal/mol
109. V61Q  4.22 kcal/mol
110. G58I  4.22 kcal/mol
111. E62L  4.21 kcal/mol
112. E60Y  4.21 kcal/mol
113. V61T  4.2 kcal/mol
114. K10P  4.2 kcal/mol
115. K17T  4.2 kcal/mol
116. L18S  4.19 kcal/mol
117. V37S  4.19 kcal/mol
118. R15L  4.18 kcal/mol
119. E28K  4.17 kcal/mol
120. E28N  4.17 kcal/mol
121. E28F  4.17 kcal/mol
122. E48V  4.17 kcal/mol
123. R15N  4.17 kcal/mol
124. R15S  4.17 kcal/mol
125. V61C  4.16 kcal/mol
126. K56R  4.15 kcal/mol
127. E60R  4.15 kcal/mol
128. K19V  4.14 kcal/mol
129. E53A  4.13 kcal/mol
130. E62Y  4.12 kcal/mol
131. E60I  4.12 kcal/mol
132. G58E  4.12 kcal/mol
133. L18C  4.11 kcal/mol
134. K10D  4.11 kcal/mol
135. N26E  4.09 kcal/mol
136. F41V  4.09 kcal/mol
137. K52E  4.07 kcal/mol
138. T43R  4.06 kcal/mol
139. E16P  4.03 kcal/mol
140. F41W  4 kcal/mol
141. V61M  3.99 kcal/mol
142. F9M  3.98 kcal/mol
143. I39T  3.95 kcal/mol
144. E48P  3.89 kcal/mol
145. E62W  3.87 kcal/mol
146. F9S  3.85 kcal/mol
147. E62P  3.84 kcal/mol
148. G58P  3.83 kcal/mol
149. I38G  3.78 kcal/mol
150. K6E  3.75 kcal/mol
151. I39H  3.68 kcal/mol
152. A54N  3.65 kcal/mol
153. V37G  3.63 kcal/mol
154. T11P  3.48 kcal/mol
155. I7Q  3.21 kcal/mol
156. I39S  3.19 kcal/mol
157. F41G  3.01 kcal/mol
158. L18Q  2.9 kcal/mol
159. A54P  2.86 kcal/mol
160. A50D  2.77 kcal/mol
161. A50R  2.59 kcal/mol
162. L18P  1.65 kcal/mol
163. I7D  1.65 kcal/mol
164. L18D  1.24 kcal/mol
165. I38P  1.19 kcal/mol
166. F41R  1.04 kcal/mol
167. F41E  0.961 kcal/mol
